Assay results reported in patent US20090148436A1 (Pfizer, published 2009).
One block for each binder: values may come before it.

Key:
[1] = molecular target: T1, mature human GDF8 (growth and differentiation factor-8, myostatin) (human, UniProt O14793 267-375); assay: inhibition of the binding of biotinylated GDF8 (20 ng/ml), preincubated with the titrated protein, to plate-coated ActRIIB-Fc; axis OD 450 nm
T1 construct: Recombinant mature GDF8 dimer purified from CHO cell conditioned media; It was biotinylated (Sulfo-NHS-Biotin) in the direct ELISA, the BIAcore work and the ActRIIB plate assay, and unlabeled in the sandwich ELISAs; In the peptide array Cys was replaced by Ser; also called mature GDF-8; GDF-8 dimer

[2] = molecular target: T1, mature human GDF8 (growth and …); assay: BIAcore 2000, RK22 (lot PK1901, activity 82.54 %) over biotinylated GDF-8 on Sensor Chip SA; 42.4 RU (6.14.03), Langmuir model (global analysis), Rmax 39.4, Chi2 3.67
[3] = molecular target: T2, mature BMP11 (human, UniProt O95390 299-407); assay: ELISA: antibody titrated on biotinylated BMP11 held on a streptavidin plate (title SA/BIO BMP11 ELISA), OD 450 nm
T2 construct: mature; it is not certain that 'human' covers BMP11; It was biotinylated in the ELISA; also called biotinylated BMP11
T2 sequence (O95390 299-407): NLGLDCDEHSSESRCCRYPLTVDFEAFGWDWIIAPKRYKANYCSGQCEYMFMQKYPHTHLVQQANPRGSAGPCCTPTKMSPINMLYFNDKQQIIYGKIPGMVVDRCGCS

[4] = molecular target: T1, mature human GDF8 (growth and …); assay: BIAcore 2000, RK22 (lot PK1901, activity 82.54 %) over biotinylated GDF-8 on Sensor Chip SA; 45 RU (4.30.03), Langmuir model (global analysis), Rmax 84.00, Chi2 2.12
[5] = molecular target: T1, mature human GDF8 (growth and …); assay: BIAcore 2000, RK22 over biotinylated GDF-8 on Sensor Chip SA; Langmuir model (global analysis), row Average of three independent experiments
[6] = molecular target: T1, mature human GDF8 (growth and …); assay: SPR (BIAcore 2000), biotinylated GDF-8 on streptavidin chip, antibody 2.3-300 nM in solution
[7] = molecular target: T1, mature human GDF8 (growth and …); assay: BIAcore 2000, RK22 (lot PK1901, activity 82.54 %) over biotinylated GDF-8 on Sensor Chip SA; 71 RU (2.6.03), Bivalent model (global analysis), ka1/kd1, Rmax 53.00, Chi2 0.84
[8] = molecular target: T1, mature human GDF8 (growth and …); assay: ELISA: antibody titrated on biotinylated GDF8 held on a streptavidin plate (title SA/BIO GDF8 BINDING ELISA), OD 450 nm
[9] = molecular target: T1, mature human GDF8 (growth and …); assay: BIAcore 2000, RK22 over biotinylated GDF-8 on Sensor Chip SA; Bivalent model (global analysis), ka1/kd1, row Average of three independent experiments
[10] = molecular target: T1, mature human GDF8 (growth and …); assay: BIAcore 2000, RK22 (lot PK1901, activity 82.54 %) over biotinylated GDF-8 on Sensor Chip SA; 45 RU (4.30.03), Bivalent model (global analysis), ka1/kd1, Rmax 84.00, Chi2 1.29
[11] = molecular target: T1, mature human GDF8 (growth and …); assay: BIAcore 2000, RK22 (lot PK1901, activity 82.54 %) over biotinylated GDF-8 on Sensor Chip SA; 71 RU (2.6.03), Langmuir model (global analysis), Rmax 44.00, Chi2 7.47
[12] = molecular target: T1, mature human GDF8 (growth and …); assay: sandwich ELISA: RK22 coated, GDF-8 titrated, biotinylated RK35 as detector, in THST; the concentration is that of GDF-8
[13] = molecular target: T1, mature human GDF8 (growth and …); assay: BIAcore 2000, RK22 (lot PK1901, activity 82.54 %) over biotinylated GDF-8 on Sensor Chip SA; 42.4 RU (6.14.03), Bivalent model (global analysis), ka1/kd1, Rmax 49.2, Chi2 0.299
[14] = molecular target: T1, mature human GDF8 (growth and …); assay: cell-based or functional assay
[15] = molecular target: T1, mature human GDF8 (growth and …); assay: soluble ActRIIB as competitor: inhibition of the binding of biotinylated GDF8 (20 ng/ml) to plate-coated ActRIIB-Fc; axis OD 450 nm

IC50 (read off the curve) [1]: ~0.3 nM
B1: MYO-029 human IgG1 anti-GDF-8 antibody (antibody, V domains shown)
VH: QVQLVQSGAEVKKPGASVKVSCKASGYTFTSYYMHWVRQAPGQGLEWMGIINPSGGSTSYAQKFQGRVTMTRDTSTSTVYMELSSLRSEDTAVYYCARDENWGFDPWGQGTLVTVSS
VL: SYELTQPPSVSVSPGQTATITCSGHALGDKFVSWYQQGSGQSPVLVIYDDTQRPSGIPGRFSGSNSGNTATLTISGTQAMDEADYFCQAWDSSFVFGGGTKVTVL

Ka [2]: 3.24e+08 M⁻¹ | Kd [2]: 3.09 nM | koff [2]: 0.000482 s⁻¹ | kon [2]: 156000 M⁻¹ s⁻¹ | EC50 [3]: 61.2 µg/mL | Ka [4]: 7.28e+07 M⁻¹ | Kd [4]: 13.7 nM | koff [4]: 0.000633 s⁻¹ | kon [4]: 46100 M⁻¹ s⁻¹ | Ka [5]: 2.18e+08 M⁻¹ | Kd [5]: 6.89 nM | koff [5]: 0.000562 s⁻¹ | kon [5]: 116000 M⁻¹ s⁻¹ | Kd [6]: 7 nM | Ka [7]: 1.07e+08 M⁻¹ | Kd [7]: 9.33 nM | koff [7]: 0.00078 s⁻¹ | kon [7]: 83600 M⁻¹ s⁻¹ | EC50 [8]: 0.193 µg/mL | Ka [9]: 8.44e+07 M⁻¹ | Kd [9]: 15.2 nM | koff [9]: 0.000708 s⁻¹ | kon [9]: 61600 M⁻¹ s⁻¹ | Ka [10]: 3.67e+07 M⁻¹ | Kd [10]: 27.3 nM | koff [10]: 0.00063 s⁻¹ | kon [10]: 23100 M⁻¹ s⁻¹ | Ka [11]: 2.58e+08 M⁻¹ | Kd [11]: 3.88 nM | koff [11]: 0.000572 s⁻¹ | kon [11]: 147000 M⁻¹ s⁻¹ | EC50 (read off the curve) [12]: ~0.0003 µg/mL | Ka [13]: 1.09e+08 M⁻¹ | Kd [13]: 9.14 nM | koff [13]: 0.000714 s⁻¹ | kon [13]: 78100 M⁻¹ s⁻¹ | IC50, pGL3(CAGA)12 luciferase reporter in A204 cells treated with 10 ng/ml GDF8 [14]: 0.4 nM
B2: RK22 murine monoclonal anti-GDF8 antibody (antibody, V domains shown)
VH: QVQLQQSGAELARPGASVKLSCKASGYTFTSYWMQWVKQRPGQGLEWIGAIYPGDGDTRYTQKFKGKATLTADKSSSTAYMQLSSLASEDSAVYYCARMGGYDRYYFDYWGQGTTLTVSS
VL: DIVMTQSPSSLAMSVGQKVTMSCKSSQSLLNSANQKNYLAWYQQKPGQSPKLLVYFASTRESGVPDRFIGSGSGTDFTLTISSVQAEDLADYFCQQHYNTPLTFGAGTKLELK
notes: Mouse monoclonal from a hybridoma (GDF8 knockout mice); It was biotinylated when used as the ELISA detector; also called RK22 antibody; biotinylated RK22

IC50 (read off the curve) [15]: ~0.3 nM
B3: Recombinant ActRIIB-Fc chimera (R&D Systems, Cat. No. 339-RB/CF) (Fc fusion)
chain: SGRGEAETRECIYYNANWELERTNQSGLERCEGEQDKRLHCYASWRNSSGTIELVKKGCWLDDFNCYDRQECVATEENPQVYFCCCEGNFCNERFTHLPEAGGPEVTYEPPPTAPT
notes: Bought construct; also called ActRIIB fusion protein; ActIIRB; Fc part of the bought chimera not given
